Source: PMC12431793, “Identification of antibodies induced by immunization with the syphilis vaccine candidate Tp0751” (Vaccine, 2025)

Key:
Settings in all cases: both partners purified
Tp0751_(115–237) = biological target: T1, Tp0751_(115–237) (Treponema pallidum subsp. pallidum, …, UniProt O83732); assay: ELISA; epitope mapping: 33pM of antibody on plate-coated Tp0751_(24–237), Tp0751_(99–237) or Tp0751_(115–237)
T1 construct: Tp0751 of Treponema pallidum, amino acids 115-237 (N-terminal truncation; lipocalin structural fold); also called Tp0751 lipocalin structural/functional domain
T1 sequence (O83732 115-237): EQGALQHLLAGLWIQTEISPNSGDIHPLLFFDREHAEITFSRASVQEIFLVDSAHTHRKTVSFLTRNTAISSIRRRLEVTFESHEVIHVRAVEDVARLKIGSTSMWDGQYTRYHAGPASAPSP

Tp0751_(24–237) [1] = biological target: T2, Tp0751_(24–237) (Treponema pallidum subsp. pallidum, …, UniProt O83732); assay: BLI; OctetRed, room temperature, shaking at 500 RPM; 40 μg/mL antibody loaded on Protein A capture biosensors; 0.1, 0.7 or 6 μM Tp0751_(24–237) in solution, 5 min association, 5 min dissociation in kinetics buffer
T2 construct: The biotinylated, streptavidin-tetramerised form was used only to stain and sort B cells, not in BLI or ELISA; also called soluble Tp0751_(24–237); mature Tp0751 protein
T2 sequence (O83732 24-237): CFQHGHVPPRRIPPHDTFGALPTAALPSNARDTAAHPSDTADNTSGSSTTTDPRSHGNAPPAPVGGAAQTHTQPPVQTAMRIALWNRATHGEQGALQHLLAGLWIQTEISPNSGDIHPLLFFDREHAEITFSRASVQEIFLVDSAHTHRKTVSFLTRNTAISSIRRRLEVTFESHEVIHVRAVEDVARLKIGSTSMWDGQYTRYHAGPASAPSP

Tp0751_(24–237) [2] = biological target: T2, Tp0751_(24–237); assay: ELISA; epitope mapping: 33pM of antibody on plate-coated Tp0751_(24–237), Tp0751_(99–237) or Tp0751_(115–237)
Tp0751_(99–237) = biological target: T3, Tp0751_(99–237) (Treponema pallidum subsp. pallidum, …, UniProt O83732); assay: as above
T3 construct: Tp0751 of Treponema pallidum, amino acids 99-237 (N-terminal truncation; alpha helix cap 99-114 and lipocalin domain 115-237)
T3 sequence (O83732 99-237): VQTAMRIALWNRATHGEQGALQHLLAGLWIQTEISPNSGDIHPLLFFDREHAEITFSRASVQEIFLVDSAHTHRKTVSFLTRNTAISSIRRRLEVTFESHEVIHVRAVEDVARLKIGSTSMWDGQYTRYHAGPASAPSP

Tp0751_(24–237) [3] = biological target: T2, Tp0751_(24–237); assay: ELISA; titration: plates coated with 15 pmol/well Tp0751_(24–237) in 1xTBS pH 7.4; 0.2 pM-33 nM rabbit antibodies serially diluted in 4 % skim milk in TBS, 1 h at room temperature; anti-rabbit IgG-HRP

Binder	binding result (Tp0751_(115–237))	binding result (Tp0751_(24–237) [1])	binding result (Tp0751_(24–237) [2])	binding result (Tp0751_(99–237))	binding result (Tp0751_(24–237) [3])
2091E9 (antibody, V domains shown, made as rabbit IgG; source: produced and purified as rabbit IgG by Sino Biological) VH: QSVEESGGRLVTPGGSLTLTCTVSGFSLSSYVMTWVRQAPGKGLEWIGYIYIDGYTTWYASWVKGRFTISRTSTTVDLKMTSLSTEDTATYFCVRVGATIDFMMRRLDLWGQGTLVTVSS VL: DVVMTQTPSSVSAAVRGTVTIKCQASPSVYSDYLSWYQQKPGQRPKLLMYGTSTLASGVPSRFKGSGSGTQFTLTISDVQCDDAATYYCAGGFNSGADSFAFGGGTEVVVQ	binds	binds	–	–	–
2101B3 (antibody, V domains shown, made as rabbit IgG; source: produced and purified as rabbit IgG by Sino Biological) VH: QSLEESGGDLVKPGASLTLTCTASGLDFSGYYYICWVRQAPGKGLEWIGCIWPGDGDTDYASWAKGRFTVSKTSSTTVDLKVTTLTAADTATYFCGRLLGSGSAYFNLWGPGTLVTVSS VL: AVVMTQTPSSVSEAVGGTVTIKCQASQTIGEALAWYQQKPGQPPKLLIYKASTVASGVPWRFKGSGCGSEYTLTISGVQCEDAATYYCQQGYSLTIIDNLFGGGTEVVVE	binds	–	binds	binds	–
2092D3 (antibody, V domains shown, made as rabbit IgG; source: produced and purified as rabbit IgG by Sino Biological) VH: QSVEESGGRLVTPGTPLTLTCTVSGFSLSSYTMSWVRQAPGKGLEWIGVISGSDTLSYATWAKGRFTISKTSTTVDLKITSPTTADTATYFCARDGGYSDYDHAPNIWGPGTLVTVSL VL: DVVMTQTPASVEAAVGGTVTIKCQASQSIYNYLAWYQQKPGQPPKLLIYQASKVASGVPSRFKGRGSGTQFTLTISDLECADAATYYCQWSFYDSNYIGAFGGGTEVVVK	no binding (tested: 33pM of antibody)	–	–	binds	binds
2092E3 (antibody, V domains shown, made as rabbit IgG; source: produced and purified as rabbit IgG by Sino Biological) VH: QSVEESGGRLVTPGTPLTLTCTVSGIDLSSYAMSWVRQAPGKGLEWIGVIGDMDIVSYATWAKGRFTISKTSTTVDLKITSPTTADTATYFCAGDGGYSDYDHAPNIWGPGTLVTVSL VL: DVVMTQTPASVEAAVGGTVTIKCHASESIYDYLAWYQQKPGQPPKLLISKASTLASGVPSGFKASGSGTLFTLTISDLECADAATYYCQWSFYDHYYVGAFGGGTEVVVK	no binding (tested: 33pM of antibody)	–	binds	binds	–
2131F4 (antibody, V domains shown, made as rabbit IgG; source: produced and purified as rabbit IgG by Sino Biological) VH: QSVEESGGDLVKPEGSLTLTCTASEFSFNTNHYVCWVRQAPGKGLEWLACVAGGGSGATYYATWAKGRFTLSRTSSSTVTLEMTSLAPADTATYFCARVDSTDFNFDLWGPGTLVTVSS VL: DPVMTQTPSPVSAAVGGTVSISCQSSQIVYNDNWLSWYQQKPGQPPKRLIYGTSNSASGVPSRFKGSGCGTQFTLTISDVQCDDAATYYCQGGYLVGDVYVFGGGTEVVVK	no binding (tested: 33pM of antibody)	–	binds	no binding (tested: 33pM of antibody)	–
2101A3 (antibody, V domains shown, made as rabbit IgG; source: produced and purified as rabbit IgG by Sino Biological) VH: QSLEESGGGLVKPGGTLTLTCKASGFDLSSYYYMCWVRQAPGKGLEWIACTYISSGSTWYASWAKGRFTVSKPSSTTVTLQMTSLTAADTATYFCAREVGSPEYGYYLDLWGPGTLVTVSS VL: DVVMTQTPASVEAAVGGTVTIKCQASQSISSWLSWYQQKPGQPPKLLIYQASKLASGVPSRFKGSGCGTEYTLTISDLECADGATYYCQTYYGSGSSNYHAFGGGTEVVVK	no binding (tested: 33pM of antibody)	–	–	binds	binds
2101D12 (antibody, V domains shown, made as rabbit IgG; source: produced and purified as rabbit IgG by Sino Biological) VH: QQLEESGGGLVKPGGTLTLTCKASGWDFSSSYWISWVRQAPGKGLEWIAYINTDSLKTYYATWAKGRFTVSKTSSTTVTLQVTSLTAADTATYFCADGAFWGPGTLVTVSS VL: DVVMTQTPASVSAAVGGTVTINCQASQSINSWLSWYQQKPGQPPKRLINDASTLESGVPSRFKGSGCGTQFTLTISDLECADAATYYCQSHYFSRSIDYYNAFGGGTEVVVK	binds	–	–	binds	binds
